The target in this assay is synthetic peptide 89-122 of Eg 6 (Echinococcus granulosus). The assay can be described thus: ELISA on bound peptide, ascites diluted to 1/100 (control). Background: In an ELISA, binding on a coated surface is turned into a signal by an enzyme label.

“myeloma ascites (SP2/0) (polyclonal serum or antibody)” came in with a mean of the optical densities (optical density) of 0.12.

For the origin of these results see patent publication US5541078.
